Source: FireProtDB (doi:10.1021/bi972642d)

B1: Protein S100-G, P02633 (parent)
chain: MSAKKSPEELKGIFEKYAAKEGDPNQLSKEELKLLLQTEFPSLLKGPSTLDELFEELDKNGDGEVSFEEFQVLVKKISQ

Variants of: B1
Conditions: Bos taurus; pH 7; 25 °C; Urea; CD; Potassium phosphate 10 mM; structure 1IGV; whole UniProt chain shown

L10V
ddG of mutation (higher = less stable): 2.2 kcal/mol | denaturant m value: 1 kcal/mol/M | denaturant midpoint (higher = more stable): 4.3 M | unfolding free energy: 4.35 kcal/mol

F14A
ddG of mutation (higher = less stable): 4.83 kcal/mol | denaturant m value: 0.88 kcal/mol/M | denaturant midpoint (higher = more stable): 2 M | unfolding free energy: 1.72 kcal/mol

L27A
ddG of mutation (higher = less stable): 3.73 kcal/mol | denaturant m value: 1.03 kcal/mol/M | denaturant midpoint (higher = more stable): 2.7 M | unfolding free energy: 2.82 kcal/mol

L27G
ddG of mutation (higher = less stable): 4.28 kcal/mol | denaturant m value: 1.22 kcal/mol/M | denaturant midpoint (higher = more stable): 1.8 M | unfolding free energy: 2.27 kcal/mol

L32A
ddG of mutation (higher = less stable): 2.7 kcal/mol | denaturant m value: 1.03 kcal/mol/M | denaturant midpoint (higher = more stable): 3.8 M | unfolding free energy: 3.85 kcal/mol

V65A
ddG of mutation (higher = less stable): 3.78 kcal/mol | denaturant m value: 0.81 kcal/mol/M | denaturant midpoint (higher = more stable): 3.4 M | unfolding free energy: 2.77 kcal/mol

V65G
ddG of mutation (higher = less stable): 4.35 kcal/mol | denaturant m value: 0.86 kcal/mol/M | denaturant midpoint (higher = more stable): 2.6 M | unfolding free energy: 2.2 kcal/mol

F70A
ddG of mutation (higher = less stable): 4.97 kcal/mol | denaturant m value: 0.79 kcal/mol/M | denaturant midpoint (higher = more stable): 2 M | unfolding free energy: 1.58 kcal/mol

F70W
ddG of mutation (higher = less stable): 2.34 kcal/mol | denaturant m value: 0.69 kcal/mol/M | denaturant midpoint (higher = more stable): 6.1 M | unfolding free energy: 4.21 kcal/mol

V74L
ddG of mutation (higher = less stable): 1.2 kcal/mol | denaturant m value: 0.81 kcal/mol/M | denaturant midpoint (higher = more stable): 6.6 M | unfolding free energy: 5.35 kcal/mol

I77V
ddG of mutation (higher = less stable): 1.53 kcal/mol | denaturant m value: 1.15 kcal/mol/M | denaturant midpoint (higher = more stable): 4.4 M | unfolding free energy: 5.02 kcal/mol
